{"source": "patent WO2021180110A1", "molecular_target": "COVID-19 Spike-RBD-his fusion protein (novel coronavirus (COVID-19)), P0DTC2", "conditions": "remark: other sources report otherwise"}
{"binder": "CD147-his fusion protein, P35613 22-205 (receptor) AAGTVFTTVEDLGSKILLTCSLNDSATEVTGHRWLKGGVVLKEDALPGQKTEFKVDSDDQWGEYSCVFLPEPMGTANIQLHGPPRVKAVKSSEHINEGETAMLVCKSESVPPVTDWAWYKITDSEDKALMNGSESRFFVSSSQGRSELHIENLNMEADPGQYRCNGTSSKGSDQAIITLRVRSH", "values": [{"measurement": "EC50", "result": 68.8, "unit": "µg/mL"}]}
